The results in this text go back to article PMC11574045, “A cofactor-induced repressive type of transcription factor condensation can be induced by synthetic peptides to suppress tumorigenesis” (The EMBO Journal, 2024).

The test concerns HEK293FT cells transfected with TF library. Kind of test: Screening of TF condensates based on fluorescent puncta. The following applies: Figure 1B numerical data; TF library screen, one value per transcriptional factor. It counts as cell-based. In a few lines: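 Cells were seeded onto plasmid/PEI-loaded wells (plasmid 1.6 μg/ml final) and grown 60 h. Medium with or without glucose followed for 12 h. Fixed, permeabilized cells were stained against Flag or GAL4 tags, and condensate puncta were quantified from 50 random fields per well.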

B1: POU4F1 (protein, UniProt Q01851 1-419, looked up)
POU domain, class 4, …: MMSMNSKQPHFAMHPTLPEHKYPSLHSSSEAIRRACLPTPPLQSNLFASLDETLLARAEALAAVDIAVSQGKSHPFKPDATYHTMNSVPCTSTSTVPLAHHHHHHHHHQALEPGDLLDHISSPSLALMAGAGGAGAAAGGGGAHDGPGGGGGPGGGGGPGGGPGGGGGGGPGGGGGGPGGGLLGGSAHPHPHMHSLGHLSHPAAAAAMNMPSGLPHPGLVAAAAHHGAAAAAAAAAAGQVAAASAAAAVVGAAGLASICDSDTDPRELEAFAERFKQRRIKLGVTQADVGSALANLKIPGVGSLSQSTICRFESLTLSHNNMIALKPILQAWLEEAEGAQREKMNKPELFNGGEKKRKRTSIAAPEKRSLEAYFAVQPRPSSEKIAAIAEKLDLKKNVVRVWFCNQRQKQKRMKFSATY
For the molecule B1, the “Z score of condensed fraction” value is listed as -0.7489.

B2: POU3F1 (protein, UniProt Q03052 1-451, looked up)
POU domain, class 3, …: MATTAQYLPRGPGGGAGGTGPLMHPDAAAAAAAAAAAERLHAGAAYREVQKLMHHEWLGAGAGHPVGLAHPQWLPTGGGGGGDWAGGPHLEHGKAGGGGTGRADDGGGGGGFHARLVHQGAAHAGAAWAQGSTAHHLGPAMSPSPGASGGHQPQPLGLYAQAAYPGGGGGGLAGMLAAGGGGAGPGLHHALHEDGHEAQLEPSPPPHLGAHGHAHGHAHAGGLHAAAAHLHPGAGGGGSSVGEHSDEDAPSSDDLEQFAKQFKQRRIKLGFTQADVGLALGTLYGNVFSQTTICRFEALQLSFKNMCKLKPLLNKWLEETDSSSGSPTNLDKIAAQGRKRKKRTSIEVGVKGALESHFLKCPKPSAHEITGLADSLQLEKEVVRVWFCNRRQKEKRMTPAAGAGHPPMDDVYAPGELGPGGGGASPPSAPPPPPPAALHHHHHHTLPGSVQ
On to B2, for which the “Z score of condensed fraction” value was -0.6601.

B3: POU5F2 (protein, UniProt Q8N7G0 1-328, looked up)
POU domain, class 5, …: MAGHRPSNHFCPLPGSGGGGPRGPMPLRVDTLTWLSTQAAPGRVMVWPAVRPGICPGPDVWRIPLGPLPHEFRGWIAPCRPRLGASEAGDWLRRPSEGALPGPYIALRSIPKLPPPEDISGILKELQQLAKELRQKRLSLGYSQADVGIAVGALFGKVLSQTTICRFEAQQLSVANMWKLRPLLKKWLKEVEAENLLGLCKMEMILQQSGKWRRASRERRIGNSLEKFFQRCPKPTPQQISHIAGCLQLQKDVVRVWFYNRSKMGSRPTNDASPREIVGTAGPPCPGAPVCFHLGLGLPVDIPHYTRLYSAGVAHSSAPATTLGLLRF
With B3, the “Z score of condensed fraction” value came to 1.226.

B4: PQBP1 (protein, UniProt O60828 2-265, looked up)
Polyglutamine-binding protein …: PLPVALQTRLAKRGILKHLEPEPEEEIIAEDYDDDPVDYEATRLEGLPPSWYKVFDPSCGLPYYWNADTDLVSWLSPHDPNSVVTKSAKKLRSSNADAEEKLDRSHDKSDRGHDKSDRSHEKLDRGHDKSDRGHDKSDRDRERGYDKVDRERERDRERDRDRGYDKADREEGKERRHHRREELAPYPKSKKAVSRKDEELDPMDPSSYSDAPRGTWSTGLPKRNEAKTGADTTAAGPLFQQRPYPSPGAVLRANAEASRTKQQD
Regarding B4, the “Z score of condensed fraction” value is recorded as -0.5347.

B5: PPARD (protein, UniProt Q03181 1-441, looked up)
Peroxisome …: MEQPQEEAPEVREEEEKEEVAEAEGAPELNGGPQHALPSSSYTDLSRSSSPPSLLDQLQMGCDGASCGSLNMECRVCGDKASGFHYGVHACEGCKGFFRRTIRMKLEYEKCERSCKIQKKNRNKCQYCRFQKCLALGMSHNAIRFGRMPEAEKRKLVAGLTANEGSQYNPQVADLKAFSKHIYNAYLKNFNMTKKKARSILTGKASHTAPFVIHDIETLWQAEKGLVWKQLVNGLPPYKEISVHVFYRCQCTTVETVRELTEFAKSIPSFSSLFLNDQVTLLKYGVHEAIFAMLASIVNKDGLLVANGSGFVTREFLRSLRKPFSDIIEPKFEFAVKFNALELDDSDLALFIAAIILCGDRPGLMNVPRVEAIQDTILRALEFHLQANHPDAQYLFPKLLQKMADLRQLVTEHAQMMQRIKKTETETSLHPLLQEIYKDMY
As for B5, the “Z score of condensed fraction” value is -0.9649.

B6: POLR3C (protein, UniProt Q9BUI4 1-534, looked up)
DNA-directed RNA polymerase …: MTQAEIKLCSLLLQEHFGEIVEKIGVHLIRTGSQPLRVIAHDTGTSLDQVKKALCVLVQHNLVSYQVHKRGVVEYEAQCSRVLRMLRYPRYIYTTKTLYSDTGELIVEELLLNGKLTMSAVVKKVADRLTETMEDGKTMDYAEVSNTFVRLADTHFVQRCPSVPTTENSDPGPPPPAPTLVINEKDMYLVPKLSLIGKGKRRRSSDEDAAGEPKAKRPKYTTDNKEPIPDDGIYWQANLDRFHQHFRDQAIVSAVANRMDQTSSEIVRTMLRMSEITTSSSAPFTQPLSSNEIFRSLPVGYNISKQVLDQYLTLLADDPLEFVGKSGDSGGGMYVINLHKALASLATATLESVVQERFGSRCARIFRLVLQKKHIEQKQVEDFAMIPAKEAKDMLYKMLSENFMSLQEIPKTPDHAPSRTFYLYTVNILSAARMLLHRCYKSIANLIERRQFETKENKRLLEKSQRVEAIIASMQATGAEEAQLQEIEEMITAPERQQLETLKRNVNKLDASEIQVDETIFLLESYIECTMKRQ
In the case of B6, the “Z score of condensed fraction” value stood at 2.0488.

B7: POU3F4 (protein, UniProt P49335 1-361, looked up)
POU domain, class 3, …: MATAASNPYSILSSTSLVHADSAGMQQGSPFRNPQKLLQSDYLQGVPSNGHPLGHHWVTSLSDGGPWSSTLATSPLDQQDVKPGREDLQLGAIIHHRSPHVAHHSPHTNHPNAWGASPAPNPSITSSGQPLNVYSQPGFTVSGMLEHGGLTPPPAAASAQSLHPVLREPPDHGELGSHHCQDHSDEETPTSDELEQFAKQFKQRRIKLGFTQADVGLALGTLYGNVFSQTTICRFEGLQLSFKNMCKLKPLLNKWLEEADSSTGSPTSIDKIAAQGRKRKKRTSIEVSVKGVLETHFLKCPKPAAQEISSLADSLQLEKEVVRVWFCNRRQKEKRMTPPGDQQPHEVYSHTVKTDTSCHDL
B7: the “Z score of condensed fraction” value was -0.484.

B8: POU3F2 (protein, UniProt P20265 1-443, looked up)
POU domain, class 3, …: MATAASNHYSLLTSSASIVHAEPPGGMQQGAGGYREAQSLVQGDYGALQSNGHPLSHAHQWITALSHGGGGGGGGGGGGGGGGGGGGGDGSPWSTSPLGQPDIKPSVVVQQGGRGDELHGPGALQQQHQQQQQQQQQQQQQQQQQQQQQRPPHLVHHAANHHPGPGAWRSAAAAAHLPPSMGASNGGLLYSQPSFTVNGMLGAGGQPAGLHHHGLRDAHDEPHHADHHPHPHSHPHQQPPPPPPPQGPPGHPGAHHDPHSDEDTPTSDDLEQFAKQFKQRRIKLGFTQADVGLALGTLYGNVFSQTTICRFEALQLSFKNMCKLKPLLNKWLEEADSSSGSPTSIDKIAAQGRKRKKRTSIEVSVKGALESHFLKCPKPSAQEITSLADSLQLEKEVVRVWFCNRRQKEKRMTPPGGTLPGAEDVYGGSRDTPPHHGVQTPVQ
With B8, the “Z score of condensed fraction” value is -0.6292.

B9: POU3F3 (protein, UniProt P20264 1-500, looked up)
POU domain, class 3, …: MATAASNPYLPGNSLLAAGSIVHSDAAGAGGGGGGGGGGGGGGAGGGGGGMQPGSAAVTSGAYRGDPSSVKMVQSDFMQGAMAASNGGHMLSHAHQWVTALPHAAAAAAAAAAAAVEASSPWSGSAVGMAGSPQQPPQPPPPPPQGPDVKGGAGRDDLHAGTALHHRGPPHLGPPPPPPHQGHPGGWGAAAAAAAAAAAAAAAAHLPSMAGGQQPPPQSLLYSQPGGFTVNGMLSAPPGPGGGGGGAGGGAQSLVHPGLVRGDTPELAEHHHHHHHHAHPHPPHPHHAQGPPHHGGGGGGAGPGLNSHDPHSDEDTPTSDDLEQFAKQFKQRRIKLGFTQADVGLALGTLYGNVFSQTTICRFEALQLSFKNMCKLKPLLNKWLEEADSSTGSPTSIDKIAAQGRKRKKRTSIEVSVKGALESHFLKCPKPSAQEITNLADSLQLEKEVVRVWFCNRRQKEKRMTPPGIQQQTPDDVYSQVGTVSADTPPPHHGLQTSVQ
Take B9: the “Z score of condensed fraction” value amounted to 1.399.

B10: POU2AF1 (protein, UniProt Q16633 1-256, looked up)
POU domain class …: MLWQKPTAPEQAPAPARPYQGVRVKEPVKELLRRKRGHASSGAAPAPTAVVLPHQPLATYTTVGPSCLDMEGSVSAVTEEAALCAGWLSQPTPATLQPLAPWTPYTEYVPHEAVSCPYSADMYVQPVCPSYTVVGPSSVLTYASPPLITNVTTRSSATPAVGPPLEGPEHQAPLTYFPWPQPLSTLPTSTLQYQPPAPALPGPQFVQLPISIPEPVLQDMEDPRRAASSLTIDKLLLEEEDSDAYALNHTLSVEGF
Turning to B10, the “Z score of condensed fraction” value is listed as 2.502.

B11: POU2F2 (protein, UniProt P09086 1-479, looked up)
POU domain, class 2, …: MVHSSMGAPEIRMSKPLEAEKQGLDSPSEHTDTERNGPDTNHQNPQNKTSPFSVSPTGPSTKIKAEDPSGDSAPAAPLPPQPAQPHLPQAQLMLTGSQLAGDIQQLLQLQQLVLVPGHHLQPPAQFLLPQAQQSQPGLLPTPNLFQLPQQTQGALLTSQPRAGLPTQAVTRPTLPDPHLSHPQPPKCLEPPSHPEEPSDLEELEQFARTFKQRRIKLGFTQGDVGLAMGKLYGNDFSQTTISRFEALNLSFKNMCKLKPLLEKWLNDAETMSVDSSLPSPNQLSSPSLGFDGLPGRRRKKRTSIETNVRFALEKSFLANQKPTSEEILLIAEQLHMEKEVIRVWFCNRRQKEKRINPCSAAPMLPSPGKPASYSPHMVTPQGGAGTLPLSQASSSLSTTVTTLSSAVGTLHPSRTAGGGGGGGGAAPPLNSIPSVTPPPPATTNSTNPSPQGSHSAIGLSGLNPSTGPGLWWNPAPYQP
On to B11, for which the “Z score of condensed fraction” value is reported as -0.2237.

B12: BACH1 (protein, UniProt O14867 1-736, looked up)
Transcription regulator …: MSLSENSVFAYESSVHSTNVLLSLNDQRKKDVLCDVTIFVEGQRFRAHRSVLAACSSYFHSRIVGQADGELNITLPEEVTVKGFEPLIQFAYTAKLILSKENVDEVCKCVEFLSVHNIEESCFQFLKFKFLDSTADQQECPRKKCFSSHCQKTDLKLSLLDQRDLETDEVEEFLENKNVQTPQCKLRRYQGNAKASPPLQDSASQTYESMCLEKDAALALPSLCPKYRKFQKAFGTDRVRTGESSVKDIHASVQPNERSENECLGGVPECRDLQVMLKCDESKLAMEPEETKKDPASQCPTEKSEVTPFPHNSSIDPHGLYSLSLLHTYDQYGDLNFAGMQNTTVLTEKPLSGTDVQEKTFGESQDLPLKSDLGTREDSSVASSDRSSVEREVAEHLAKGFWSDICSTDTPCQMQLSPAVAKDGSEQISQKRSECPWLGIRISESPEPGQRTFTTLSSVNCPFISTLSTEGCSSNLEIGNDDYVSEPQQEPCPYACVISLGDDSETDTEGDSESCSAREQECEVKLPFNAQRIISLSRNDFQSLLKMHKLTPEQLDCIHDIRRRSKNRIAAQRCRKRKLDCIQNLESEIEKLQSEKESLLKERDHILSTLGETKQNLTGLCQKVCKEAALSQEQIQILAKYSAADCPLSFLISEKDKSTPDGELALPSIFSLSDRPPAVLPPCARGNSEPGYARGQESQQMSTATSEQAGPAEQCRQSGGISDFCQQMTDKCTTDE
With B12, the “Z score of condensed fraction” value is -0.5247.
